Assay results from paper PMC12137140, “The fast-evolving FIKK kinase family of Plasmodium falciparum can be inhibited by a single compound” (Nature Microbiology, 2025).

Legend:
[1] = target: T1, Bio-His-FIKK13 (Plasmodium falciparum 3D7, biotin (site not stated)); experiment: SPR; single-cycle kinetics, Biacore S200, Biotin CAPture kit; Bio-His-FIKK13 immobilised (about 1,400 RU), peptides as analytes; 50 mM Tris pH 7.5, 250 mM NaCl, 2 mM DTT, 10 mM MgCl2, 1.5 µM ADP, 0.02% Tween, 0.1% DMSO; 25 °C; 100 s contact time; settings: both partners purified
T1 construct: also called His-bio-FIKK13; PfFIKK13

[2] = target: T2, Bio-His-FIKK13 (P. falciparum, biotin (site not stated)); experiment: SPR; Bio-His-FIKK13 immobilised (Biotin CAPture kit, about 1,400 RU), Biacore S200, single-cycle kinetics, 100 s contact time, 25 °C, 50 mM Tris pH 7.5, 250 mM NaCl, 2 mM DTT, 10 mM MgCl2, 1.5 µM ADP, 0.02% Tween, 0.1% DMSO; settings: both partners purified
T2 construct: also called His-bio-FIKK13; biotinylated FIKK13

B1: FIKK13_4_S7AY10A (peptide)
chain: YPLRFLAVKAHCG
modifications: D-tyrosine at position 1; cyclised via a thioether bond between the N-terminus and the cysteine side chain; C-terminal amide
Kd [1]: > 10000 nM

B2: FIKK13_4 (peptide)
chain: YPLRFLSKYHCG
modifications: D-tyrosine at the N-terminus; cyclised via a thioether bond between the N-terminus and the cysteine side chain; C-terminal amide
Kd [2]: 17 nM
